Results published in US8846394B2, “Treatment of neurological deficits in the striatum or substanta nigra pars compacta” (Ethicon, Inc., priority 2004, dated 2014).

What was measured:
[1] = system: adult rodent hippocampal neural progenitors; assay: Immunocytochemical staining (TuJ1, TH, GFAP) of neural progenitors after 17-day culture with growth factors; format: cell-based, rat
Protocol: Adult rodent hippocampal neural progenitors were isolated from adult rat brain following previously published methods [Svendson et al., Nat Rev Genet., 5(2) 136-44 (2004)]. Isolated cells were seeded at 1,000 cells/cm^2 into laminin-coated 24 well tissue culture plates (Becton Dickson, Bedford, Mass.).
Seeded cells were initially grown in a supplemented neuralbasal medium (NBM). The NBM was Neurobasal-A media (Invitrogen, Carlsbad, Calif.) with B27 supplement (Invitrogen, Carlsbad, Calif.), and L-glutamine (4 milliMolar) (Sigma, St. Louis, Mo.). Supplemented NBM also contains epidermal growth factor (EGF) (Sigma, St. Louis, Mo.), at 20 nanograms/milliliter, and basic fibroblast growth factor, (bFGF) (Peprotech, Rocky Hill, N.J.), at 20 nanograms/milliliter).
Set one of cells was cultured in supplemented NBM for 17 days. Set two of cells was initially cultured in supplemented NBM for 4 days. The supplemented NBM then was removed from the culture plates and cells were cultured in NBM containing MP52 (Biopharm GmbH, Heidelberg, Germany) at 20 nanograms/milliliter for a period of 13 days. Set three of cells was initially cultured in supplemented NBM for 10 days. The supplemented NBM then was removed from the culture plate, and cells were cultured in NMB containing Sonic Hedgehog, (SHH) (Sigma, St. Louis, Mo.), at 200 nanograms/milliliter, and fibroblast growth factor 8 (FGF8) (Peprotech, Rocky Hill, N.J.), at 100 nanograms/milliliter. Set four of cells was initially cultured in supplemented NBM for 10 days. The supplemented NBM then was removed from the culture plates and cells were cultured in NBM containing MP52 at 20 nanograms/milliliter, SHH at 200 nanograms/milliliter, and FGF8 at 100 nanograms/milliliter).
At the end of the 17-day experimental period, all cultures were fixed with 4 percent paraformaldehyde (Sigma, St. Louis, Mo.) and immunocytochemical staining was performed to evaluate expression of Beta Tubulin III (TuJ1), glial fibrilary acidic protein (GFAP), and tyrosine hydroxylase (TH). […]
Following immunocytochemical staining, fluorescence was visualized using an Olympus inverted epifluorescent microscope and images were taken with a digital camera and ImagePro software (Media Cybernetics, Silver Spring, Md.). To further quantify the response, fields of cells were counted at a magnification power of 200× to examine the percentage of positive cells for each marker and compared to control samples grown in NBM alone. A minimum of 1,000 cells were counted per condition or, if less, the total number of cells observed in that condition.
The percentage of cells positive for a given marker was determined by dividing the number of positive cells for a particular marker by the total number of nucleated cells determined by DAPI staining.

[2] = system: human umbilical cord cells; assay: Quantitative PCR of Nurr1 and TH mRNA in umbilical postpartum cells after dopaminergic differentiation; format: cell-based
Protocol: Postpartum cells were isolated from an umbilical cord and placental digestion as described in U.S. patent application Ser. Nos. 10/887,012 and 10/877,446. Briefly, human umbilical cord and placental cells were isolated from explants of postpartum tissue.
Isolated umbilical and placental cells were seeded at 1,000 cells/cm^2 into laminin coated 24 well tissue culture plates (Corning, N.Y.). Cells were initially seeded in maintenance media (control) as described in nonprov serial no. After 4 days in maintenance media, cells were split into four groups. The first set of cells was switched to NBM supplemented with EGF (20 nanograms/milliliter) and bFGF (20 nanograms/milliliter) and grown for 13 days. Sets two through four were switched to NBM supplemented with EGF (20 nanograms/milliliter) and bFGF (20 nanograms/milliliter) and grown for 6 days. The NBM supplemented with EGF and […] was then removed and cells were cultured in NBM containing; MP52 plus SHH plus FGF8 (set two); MP52 plus SHH plus FGF8 plus retinoic acid (RA) (set three); or MP52 plus RA (set four) for a further 7 days of culture.
At the end of the 17-day experimental period, RNA was isolated from the induced cell population using an Rneasy kit (RNeasy Mini kit, Qiagen, Valencia, Calif.). […]

[3] = system: embryonic rat dopaminergic neurons; conditions: in vitro; cited from earlier work
[4] = system: adult rat nigrostriatal dopaminergic system; conditions: intraparenchymal injection; cited from earlier work
[5] = immunostain, end of 17-day culture, positive cells / DAPI nucleated cells

B1: MP52: human recombinant GDF5 protein, 120 amino acid residues with alanine at the N-terminus, from Biopharm GmbH (protein, UniProt P43026 382-501, looked up)
Growth/differentiation factor …: APLATRQGKRPSKNLKARCSRKALHVNFKDMGWDDWIIAPLEYEAFHCEGLCEFPLRSHLEPTNHAVIQTLMNSMDPESTPPTCCVPTRLSPISILFIDSANNVVYKQYEDMVVESCGCR
- differentiation towards an astrocytic phenotype (GFAP expression), in words ([1]; immunocytochemistry): increased expression
- Nurr1 expression, in words ([2]; postpartum cell cultures (umbilicus and placenta), compared to control (NBM plus EGF plus FGF8)): induced
- Tyrosine hydroxylase (TH) expression, in words ([2]; umbilical cell cultures, compared to control): induced
- survival-promoting action on dopaminergic neurons against MPP+ [3]: survival-promoting actions

B2: NBM + MP52: neurobasal medium containing MP52 at 20 nanograms/milliliter (protein, UniProt P43026 382-501, looked up)
Growth/differentiation factor …: APLATRQGKRPSKNLKARCSRKALHVNFKDMGWDDWIIAPLEYEAFHCEGLCEFPLRSHLEPTNHAVIQTLMNSMDPESTPPTCCVPTRLSPISILFIDSANNVVYKQYEDMVVESCGCR
modifications: in neurobasal medium, 20 ng/mL
notes: neurobasal medium containing MP52 at 20 nanograms/milliliter
- Percentage of cells staining positive for GFAP [1, 5]: ≧80%
- Percentage of cells staining positive for TH [1, 5]: 6.1%
- Percentage of cells staining positive for TuJ1 [1, 5]: 12.5%

B3: GDF5: growth and differentiation factor protein of the TGF-beta superfamily (literature studies) (protein, UniProt P43026 382-501, looked up)
Growth/differentiation factor …: APLATRQGKRPSKNLKARCSRKALHVNFKDMGWDDWIIAPLEYEAFHCEGLCEFPLRSHLEPTNHAVIQTLMNSMDPESTPPTCCVPTRLSPISILFIDSANNVVYKQYEDMVVESCGCR
- protection of nigrostriatal dopaminergic system from death induced by 6OHDA lesion [4]: protects
